Measurements reported in article PMC11576762.

Target: human TPC1 with C-terminal mVenus (human) (UniProt Q9ULQ1)
Assay: FRET or BRET; Two-hybrid FRET in live HEK293 cells; donor mTq2 constructs (0.7 µg DNA), acceptor mVenus constructs (1.5 µg DNA); confocal imaging, regions of interest around mVenus-positive lysosomes; maximum FRET efficiency from two-hybrid curves; no apilimod

Substance: mTq2-Rab5 (from UniProt P20339 1-215) (natural protein)
- FRET efficiency: 29%
